# Patent US7026443
# Molecular target: HLA-A*0301 (human)
# Details: not given
Binder,binding affinity ratio relative to standard peptide (IC50 standard / IC50 test),binding affinity ratio (IC50 of standard peptide / IC50 of test peptide),relative binding ratio (IC50 of standard peptide / IC50 of test peptide) (ratio to standard peptide),relative binding ratio (IC50 of standard peptide / IC50 of test peptide),binding affinity ratio (IC50 of the standard peptide / IC50 of the test peptide),relative binding ratio (IC50 of the standard peptide / IC50 of the test peptide)
QMNMSQWIR (modifications not checked) [HPV18 E1 426-434 peptide …],0.0011,–,–,–,–,–
"MLIQPPKLR (modifications not checked) [… (HPV18 E1, position 312, 9 amino acids)]",–,0.0005,–,–,–,–
"HDIILECVY (modifications not checked) [… (HPV16 E6, position 31)]",–,–,0.0002,–,–,–
"LLIRCINCQK (modifications not checked) [… (HPV16 E6, position 106)]",–,–,0.021,–,–,–
ALLRYKCGK (modifications not checked) [HPV45 E1 270 … (SEQ ID NO: 37205)],–,–,–,0.09,–,–
"NMSQWIRFR (modifications not checked) [… (HPV18 E1, position 428, 9 amino acids)]",–,0.054,–,–,–,–
"KISEYRHYCY (modifications not checked) [… (HPV16 E6, position 79)]",–,–,0.0043,–,–,–
"NSNAAAFLK (modifications not checked) [HPV45 E1 peptide … (position 379, 9 amino acids)]",–,–,–,0.0057,–,–
"CATMCKHYR (modifications not checked) [HPV18 E1 peptide … (position 412, 9 amino acids)]",–,0.0012,–,–,–,–
"VFEFAFKDLF (modifications not checked) [HPV18 E6 peptide … (position 44, 10 amino acids)]",–,–,–,0.0001,–,–
FITFLGALK (modifications not checked) [HPV18 E1 460 …],–,0.032,–,–,–,–
"DCATMCRHYK (modifications not checked) [HPV16 E1 peptide … (position 404, 10 amino acids)]",–,–,0.0044,–,–,–
"TTLEQQYNK (modifications not checked) [… (HPV16 E6, position 93)]",–,–,0.01,–,–,–
CVYCKQQLLR (modifications not checked) [HPV16 E6 position 37 peptide …],–,–,–,–,0.0001,–
GTTLEQQYNK (modifications not checked) [HPV16 E6 position 92 peptide …],–,–,–,–,0.0002,–
SVAALYWYR (modifications not checked) [HPV45 E1 308 peptide … (SEQ ID NO: 37559)],–,–,–,2.9,–,–
"RFHNIAGHYR (modifications not checked) [HPV18 E6 peptide … (position 126, 10 amino acids)]",–,–,–,0.0023,–,–
SVAALYWYR (modifications not checked) [HPV18 E1 322-330 peptide …],2.9,–,–,–,–,–
"GLSFTDLVR (modifications not checked) [HPV45 E1 peptide … (position 209, 9 amino acids)]",–,–,–,0.0009,–,–
"IILECVYCK (modifications not checked) [… (HPV16 E6, position 33)]",–,–,0.0016,–,–,–

Binder,binding affinity ratio relative to standard peptide (IC50 standard / IC50 test),binding affinity ratio (IC50 of standard peptide / IC50 of test peptide),relative binding ratio (IC50 of standard peptide / IC50 of test peptide) (ratio to standard peptide),relative binding ratio (IC50 of standard peptide / IC50 of test peptide),binding affinity ratio (IC50 of the standard peptide / IC50 of the test peptide),relative binding ratio (IC50 of the standard peptide / IC50 of the test peptide)
"ALLRYKCGK (modifications not checked) [HPV18 E1 peptide … (position 284, 9 amino acids)]",–,0.09,–,–,–,–
"LIRCINCQK (modifications not checked) [… (HPV16 E6, position 107)]",–,–,0.0025,–,–,–
IAQLKDLLK (modifications not checked) [HPV18 E1 198 …],–,0.0003,–,–,–,–
"NSNAAAFLK (modifications not checked) [… (HPV18 E1, position 393, 9 amino acids)]",–,0.0057,–,–,–,–
GLSFTDLVR (modifications not checked) [HPV18 E1 223 …],–,0.0009,–,–,–,–
"LVRNFKSDK (modifications not checked) [… (HPV18 E1, position 229, 9 amino acids)]",–,0.0005,–,–,–,–
SMSQWIKYR (modifications not checked) [HPV16 E1 421 …],–,0.69,–,–,–,–
LVRNFKSDK (modifications not checked) [HPV45 E1 215-223 peptide … (SEQ ID NO: 37448)],–,–,–,–,–,0.0005
DIILECVYCK (modifications not checked) [HPV16 E6 position 32 peptide …],–,–,–,–,0.0065,–
"RFHNIAGHY (modifications not checked) [HPV18 E6 peptide … (position 126, 9 amino acids)]",–,–,–,0.0005,–,–
"VVYRDSIPH (modifications not checked) [HPV18 E6 peptide … (position 54, 9 amino acids)]",–,–,–,0.12,–,–
NSNAAAFLK (modifications not checked) [HPV33 E1 379 peptide … (SEQ ID NO: 36047)],–,–,–,0.0057,–,–
"MLIQPPKLR (modifications not checked) [HPV31 E1 peptide … (position 285, 9 amino acids)]",–,–,0.0005,–,–,–
KFYSKISEYR (modifications not checked),–,–,0.0067,–,–,–
FLKSNSQAK (modifications not checked) [HPV31 E1 372 … (A03 motif peptide)],–,–,0.0013,–,–,–
"TGLYNLLIR (modifications not checked) [HPV18 E6 peptide … (position 96, 9 amino acids)]",–,–,–,0.0005,–,–
FLKSNSQAK (modifications not checked) [HPV33 E1 385 peptide … (SEQ ID NO: 35888)],–,–,–,0.0013,–,–
CTELQTTIH (modifications not checked) [HPV16 E6 position 23 peptide …],–,–,–,–,0.0002,–
TAAALYWYK (modifications not checked) [HPV16 E1 315 …],–,0.78,–,–,–,–

# Same assay, conditions: remark: other sources report otherwise
row,Binder,relative binding ratio (IC50 of standard peptide / IC50 of test peptide) (ratio to standard peptide)
1,KFYSKISEY (modifications not checked),0.0015

# Molecular target: HLA-A*1101 (human)
# Details: not given
Binder,binding affinity ratio (IC50 of standard peptide / IC50 of test peptide) (ratio to standard peptide),relative binding ratio (IC50 of standard peptide / IC50 of test peptide),binding affinity ratio (IC50 of the standard peptide / IC50 of the test peptide)
"CVYCKQQLLR (modifications not checked) [… (HPV16 E6, position 37, 10 amino acids)]",0.0005,–,–
MLIQPPKLR (modifications not checked) [HPV31 E1 285 … (SEQ ID NO: 41814)],–,0.0014,–
"DIILECVYCK (modifications not checked) [… (HPV16 E6, position 32, 10 amino acids)]",0.021,–,–
"CTELQTTIH (modifications not checked) [… (HPV16 E6, position 23, 9 amino acids)]",0.0001,–,–
"GTTLEQQYNK (modifications not checked) [… (HPV16 E6, position 92, 10 amino acids)]",0.07,–,–
"IILECVYCK (modifications not checked) [… (HPV16 E6, position 33, 9 amino acids)]",0.019,–,–
ALFTAQEAK (modifications not checked) [HPV16 E1 69 …],–,0.4,–
"NSNAAAFLK (modifications not checked) [HPV33 E1 379 peptide … (A11 motif peptide, 9 amino acids)]",–,0.37,–
CATMCRHYK (modifications not checked) [HPV16 E1 405 …],–,0.0098,–
ATMCRHYKR (modifications not checked) [HPV16 E1 406 …],–,1.5,–
"HDIILECVY (modifications not checked) [… (HPV16 E6, position 31, 9 amino acids)]",0.0001,–,–
"QMSMSQWIK (modifications not checked) [… (HPV16 E1, position 419, 9 amino acids)]",–,–,0.026
NSNASAFLK (modifications not checked) [HPV16 E1 386 …],0.011,–,–
"SMSQWIKYR (modifications not checked) [… (HPV16 E1, position 421, 9 amino acids)]",–,–,0.028
DCATMCRHY (modifications not checked) [HPV16 E1 404 …],–,0.0001,–
"EVYDFAFR (modifications not checked) [EVYDFAFR (HPV16 E6, position 48, 8 amino acids)]",0.0025,–,–
FMSFLTALK (modifications not checked) [HPV16 E1 453 …],–,0.21,–
GLSFTDLVR (modifications not checked) [HPV45 E1 209 … (SEQ ID NO: 43622)],–,0.0025,–
LVRNFKSDK (modifications not checked) [HPV45 E1 215 peptide … (SEQ ID NO: 43696)],–,0.0002,–
"TAAALYWYK (modifications not checked) [… (HPV16 E1, position 315, 9 amino acids)]",–,–,20

# Same assay, conditions: remark: other sources report otherwise
row,Binder,binding affinity ratio (IC50 of standard peptide / IC50 of test peptide) (ratio to standard peptide)
1,"KFYSKISEY (modifications not checked) [… (HPV16 E6, position 75, 9 amino acids)]",0.0002

# Same assay, conditions: scale: ratio
row,Binder,binding affinity ratio relative to standard peptide (A*1101)
1,NSNAAAFLK (modifications not checked) [HPV45 E1 379 peptide … (SEQ ID NO: 43719)],0.37
2,SVAALYWYR (modifications not checked) [HPV45 E1 308 peptide … (SEQ ID NO: 43764)],8.8
